{"source": "patent US20250376501A1", "about": "(JINGYUAN BIOSCIENCES SUZHOU, published 2025)", "key": {"[1]": {"biological_target": "T1, hTSLP-mFc recombinant protein (ACROBiosystems, Cat. No. TSP-H5255) (human, UniProt Q969D9 29-159)", "T1 construct": "Bought protein; also called hTSLP-Fc protein; not shown: mouse Fc tag", "T1 sequence (Q969D9 29-159 R127A/R130A limits assumed)": "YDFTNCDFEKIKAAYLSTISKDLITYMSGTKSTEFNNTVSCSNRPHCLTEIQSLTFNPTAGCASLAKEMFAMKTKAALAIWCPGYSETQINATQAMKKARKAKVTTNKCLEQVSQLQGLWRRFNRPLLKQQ", "test": "ELISA, hTSLP-mFc coated 50 ng/well, anti-His HRP", "protocol": "hTSLP-mFc recombinant protein (ACROBiosystems, Cat. No. TSP-H5255) was coated onto a plate at 50 ng/well and incubated at 4° C. overnight. […] After washing, mouse anti-His tag horseradish peroxidase-labeled antibody (1:5000) (purchased from Beijing Sino Biological, 105327-MM02T-H) was added, and the mixture was reacted at room temperature for 1 hour. After washing, TMD substrate solution was added, and the absorbance was read at 450 nm. Data processing and graphical analysis were performed using the software Graphpad Prism 6.0."}, "[2]": {"biological_target": "T2, hTSLP recombinant protein (ACROBiosystems, Cat. No. TSP-H52Ha) (human, UniProt Q969D9 29-159)", "T2 construct": "Bought protein; also called hTSLP protein; hTSLP-his; not shown: His tag", "T2 sequence (Q969D9 29-159 R127A/R130A limits assumed)": "as above", "test": "competitive ELISA: blocks binding of hTSLP/hTSLPR-Fc complex to coated mouse IL-7Rα-his, anti-human Fc HRP", "protocol": "Then, goat anti-human Fc tag horseradish peroxidase-labeled antibody (1:10000) was added, and the mixture was reacted at room temperature for 1 hour. Then, TMD substrate solution was added, and the absorbance was read at 450 nm. Data processing and graphical analysis were performed using the software Graphpad Prism 6.0."}, "[3]": {"biological_target": "T2, hTSLP recombinant protein …", "test": "competitive ELISA: blocks binding of hIL-7Rα-mFc to hTSLP/TSLPR-Fc complex, anti-mouse Fc HRP", "protocol": "TSLPR-Fc fusion protein was coated onto a plate at a concentration of 0.5 μg/mL and a volume of 100 μL per well, and incubated at 4° C. overnight. […] Then, goat anti-mouse Fc tag horseradish peroxidase-labeled antibody (1:5000) was added, and the mixture was reacted at room temperature for 1 hour. Then, TMD substrate solution was added, and the absorbance was read at 450 nm. Data processing and graphical analysis were performed using the software Graphpad Prism 6.0."}, "[4]": {"biological_target": "T2, hTSLP recombinant protein …", "test": "cell-based or functional assay"}, "hTSLP/TSLPR-Fc complex": {"biological_target": "T3, hTSLP/TSLPR-Fc complex (human, UniProt Q9HC73 23-231)", "T3 construct": "also called hTSLP/hTSLPR-Fc complex; not shown: His tag of the bought hTSLP; Fc tag of the bought protein (detected with anti-human Fc)", "test": "ELISA, TSLPR-Fc coated, hTSLP added, hIL-7Rα-mFc titrated, anti-mouse Fc HRP", "protocol": "TSLPR-Fc recombinant protein (purchased from ACROBiosystems, Cat. No. TSR-H525a) was coated onto a plate at 0.1 μg/well and incubated at 4° C. overnight. Subsequently, the plate was washed and added with 0.1 μg/well of hTSLP, and the mixture was reacted at room temperature for 1 hour. […] After washing, goat anti-mouse Fc tag horseradish peroxidase-labeled antibody (purchased from Abcam, ab97040) was added, and the mixture was reacted at room temperature for 1 hour. After washing, substrate solution was added, and the absorbance was read at 450 nm."}}}
{"binder": "3H10-his recombinant protein (designed binder, Expressed in E. coli Rosetta from pet28b, purified on a nickel column; also called 3H10-his fusion protein; 3H10 recombinant protein; not shown: His tag from vector pet28b) GSHMDLGKKLLEAAWAGRDDEVRILMANGADVNAGDASGDTPLHLAAFSGHLEIVEVLLKHGADVNAEDLLGMTPLHLAAPFGHLEIVEVLLKHGADVNAAARNNGKTPLHLAAFVGHLEIVEVLLKNGADVNAQDKFGKTAFDISIDNGNEDLAEILQKLNG", "values": [{"measurement": "EC50", "setting": "[1]", "result": 0.029, "unit": "mg/L"}, {"measurement": "IC50", "setting": "[2]", "result": 1.69, "unit": "nM"}, {"measurement": "IC50", "setting": "[3]", "result": 1.29, "unit": "nM"}, {"measurement": "inhibition of hTSLP-induced reporter gene expression in BaF3-hTSLPR-hIL-7R-STAT5-Luc cells, IC50", "setting": "[4]", "result": 0.348, "unit": "nM"}, {"measurement": "inhibition of the proliferation-promoting effect of hTSLP on Ba/F3-TSLPR/IL-7Rα cells (CTG), IC50", "setting": "[4]", "result": 1.55, "unit": "nM"}]}
{"binder": "hIL-7Rα-mFc (ACROBiosystems, Cat. No. ILA-H5258) (Fc fusion, human, UniProt P16871 21-239, looked up, Bought protein; not shown: mouse Fc tag) ESGYAQNGDLEDAELDDYSFSCYSQLEVNGSQHSLTCAFEDPDVNITNLEFEICGALVEVKCLNFRKLQEIYFIETKKFLLIGKSNICVKVGEKSLTCKKIDLTTIVKPEAPFDLSVVYREGANDFVVTFNTSHLQKKYVKVLMHDVAYRQEKDENKWTHVNLSSTKLTLLQRKLQPAAMYEIKVRSIPDHYFKGFWSEWSPSYYFRTPEINNSSGEMD", "values": [{"measurement": "EC50", "setting": "hTSLP/TSLPR-Fc complex", "result": 0.689, "unit": "mg/L"}]}
{"binder": "TSLPR-his (Novoprotein Scientific Inc., Cat. No. CW75) (receptor, UniProt Q9HC73 23-231, looked up, Bought protein; not shown: His tag) QGGAAEGVQIQIIYFNLETVQVTWNASKYSRTNLTFHYRFNGDEAYDQCTNYLLQEGHTSGCLLDAEQRDDILYFSIRNGTHPVFTASRWMVYYLKPSSPKHVRFSWHQDAVTVTCSDLSYGDLLYEVQYRSPFDTEWQSKQENTCNVTIEGLDAEKCYSFWVRVKAMEDVYGPDTYPSDWSEVTCWQRGEIRDACAETPTPPKPKLSK", "values": [{"measurement": "EC50", "setting": "[1]", "result": 0.803, "unit": "mg/L"}]}
